The target of assay [1] is T1, Human Siglec-9 mutant M8 (human, UniProt Q9Y336 18-463).
T1 construct: Expressed on HEK293T cells; also called Mutant 8
Briefly: flow cytometry, HEK293T transfectants. Background: A flow cytometer gives signals particle by particle.

For assay [2], the target named is T2, Human Siglec-9 mutant M11 (human, UniProt Q9Y336 18-463).
T2 construct: Expressed on HEK293T cells; also called Mutant 11
Briefly: flow cytometry, HEK293T transfectants.

Assay [3] addresses T3, Human Siglec-9 mutant M14 (human, UniProt Q9Y336 18-463).
T3 construct: Expressed on HEK293T cells; also called Mutant 14
Put plainly: flow cytometry, HEK293T transfectants.

For assay [4], the target named is T4, Human Siglec-9 mutant M15 (human, UniProt Q9Y336 18-463).
T4 construct: Expressed on HEK293T cells; also called Mutant 15
Briefly: flow cytometry, HEK293T transfectants.

A further assay concerns the target T5, Siglec-9 Fc protein (human).
T5 construct: Produced in CHO cells; also called human Siglec-9 Fc
Briefly: SPR (Biacore T200), Fab over immobilized Siglec-9 Fc, 1:1 model. On the procedure:
(§1) SPR measurements were performed on a Biacore™ T200 apparatus (Biacore™ GE Healthcare) at 25° C. In all Biacore™ experiments HBS-EP+(Biacore™ GE Healthcare) and NaOH 10 mM served as running buffer and regeneration buffer respectively. Sensorgrams were analyzed with Biacore™ T200 Evaluation software. Human siglec-9 and -7 multimeric proteins were cloned, produced and purified at Innate Pharma.
(§2) Proteins were immobilized covalently to carboxyl groups in the dextran layer on a Sensor Chip CM5. The chip surface was activated with EDC/NHS (N-ethyl-N′-(3-dimethylaminopropyl) carbodiamide hydrochloride and N-hydroxysuccinimide (Biacore™ GE Healthcare). Proteins were diluted to 10 μg/ml in coupling buffer (10 mM acetate, pH 4.2 & 5.0) and injected until the appropriate immobilization level was reached (i.e., 600 to 2000RU). Deactivation of the remaining activated groups was performed using 100 mM ethanolamine pH 8 (Biacore™, GE Healthcare).
(§3) The affinity study was carried out according to a standard Kinetic protocol recommended by the manufacturer (Biacore™ GE Healthcare kinetic wizard). […] The entire sensorgram sets were fitted using the 1:1 kinetic binding model. Monovalent affinities and kinetic association and dissociation rate constants are shown below in Table 2 below.

For assay [5], the target named is T6, Human Siglec-9 mutant M6 (human, UniProt Q9Y336 18-463).
T6 construct: Expressed on HEK293T cells; also called Mutant 6
Briefly: flow cytometry, HEK293T transfectants; '-' indicates full loss of binding.

The target in the next assay is T7, Human Siglec-9 mutant M2 (human, UniProt Q9Y336 18-463).
T7 construct: Expressed on HEK293T cells; also called Mutant 2
Put plainly: flow cytometry, HEK293T transfectants.

Another assay concerns the target T8, Human Siglec-9 mutant M5 (human, UniProt Q9Y336 18-463).
T8 construct: Expressed on HEK293T cells; also called Mutant 5
Put plainly: flow cytometry, HEK293T transfectants.

Assay [6] deals with T6, Human Siglec-9 mutant M6. Briefly: flow cytometry, HEK293T transfectants.
The next assay deals with T9, Human Siglec-9 mutant M7 (human, UniProt Q9Y336 18-463).
T9 construct: Expressed on HEK293T cells; also called Mutant 7
Put plainly: flow cytometry, HEK293T transfectants.

In assay [7] the target is T2, Human Siglec-9 mutant M11. Briefly: flow cytometry, HEK293T transfectants; '-' indicates full loss of binding.
The target of assay [8] is T1, Human Siglec-9 mutant M8. The assay is described as above.
The target of the next assay is T10, Siglec-7 Fc protein (human).
T10 construct: Produced in CHO cells; also called human Siglec-7 Fc
Put plainly: SPR (Biacore T200), Fab over immobilized Siglec-7 Fc, 1:1 model. On the procedure: as §1, §2, §3

Assay [9] has as its target T11, Human Siglec-9 mutant M16 (human, UniProt Q9Y336 18-463).
T11 construct: Expressed on HEK293T cells; also called Mutant 16
Briefly: flow cytometry, HEK293T transfectants; '-' indicates full loss of binding.

T7 sequence (Q9Y336 other isoform, or with tags, fused parts or gaps mutant): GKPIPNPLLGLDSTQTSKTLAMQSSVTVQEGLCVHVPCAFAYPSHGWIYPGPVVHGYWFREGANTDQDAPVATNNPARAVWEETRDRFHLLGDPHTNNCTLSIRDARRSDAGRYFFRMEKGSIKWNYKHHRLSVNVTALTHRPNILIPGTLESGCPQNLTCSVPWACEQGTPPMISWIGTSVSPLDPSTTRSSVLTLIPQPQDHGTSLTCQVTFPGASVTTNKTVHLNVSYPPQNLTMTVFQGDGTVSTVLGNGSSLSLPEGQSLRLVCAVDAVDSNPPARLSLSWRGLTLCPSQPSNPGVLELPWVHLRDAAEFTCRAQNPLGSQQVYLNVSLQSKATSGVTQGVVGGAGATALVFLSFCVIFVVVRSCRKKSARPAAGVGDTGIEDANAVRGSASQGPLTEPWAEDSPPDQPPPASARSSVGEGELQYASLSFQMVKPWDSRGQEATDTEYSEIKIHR
T10 sequence (chain, as listed by the source limits assumed): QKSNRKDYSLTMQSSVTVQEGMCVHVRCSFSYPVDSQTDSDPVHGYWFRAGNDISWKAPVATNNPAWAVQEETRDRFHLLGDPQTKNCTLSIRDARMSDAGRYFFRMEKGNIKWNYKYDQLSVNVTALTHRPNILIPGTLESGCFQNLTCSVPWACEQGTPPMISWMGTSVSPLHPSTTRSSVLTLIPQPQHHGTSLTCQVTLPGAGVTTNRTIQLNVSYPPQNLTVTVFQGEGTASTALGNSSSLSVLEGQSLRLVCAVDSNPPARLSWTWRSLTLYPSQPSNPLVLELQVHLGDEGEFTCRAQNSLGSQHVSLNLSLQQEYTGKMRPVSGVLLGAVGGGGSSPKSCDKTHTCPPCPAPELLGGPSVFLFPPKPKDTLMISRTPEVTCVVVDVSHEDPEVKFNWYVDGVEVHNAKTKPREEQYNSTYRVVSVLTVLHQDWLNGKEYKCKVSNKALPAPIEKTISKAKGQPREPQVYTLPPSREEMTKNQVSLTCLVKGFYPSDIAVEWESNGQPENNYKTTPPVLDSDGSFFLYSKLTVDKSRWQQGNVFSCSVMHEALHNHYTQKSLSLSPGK
T9 sequence (Q9Y336 other isoform, or with tags, fused parts or gaps mutant): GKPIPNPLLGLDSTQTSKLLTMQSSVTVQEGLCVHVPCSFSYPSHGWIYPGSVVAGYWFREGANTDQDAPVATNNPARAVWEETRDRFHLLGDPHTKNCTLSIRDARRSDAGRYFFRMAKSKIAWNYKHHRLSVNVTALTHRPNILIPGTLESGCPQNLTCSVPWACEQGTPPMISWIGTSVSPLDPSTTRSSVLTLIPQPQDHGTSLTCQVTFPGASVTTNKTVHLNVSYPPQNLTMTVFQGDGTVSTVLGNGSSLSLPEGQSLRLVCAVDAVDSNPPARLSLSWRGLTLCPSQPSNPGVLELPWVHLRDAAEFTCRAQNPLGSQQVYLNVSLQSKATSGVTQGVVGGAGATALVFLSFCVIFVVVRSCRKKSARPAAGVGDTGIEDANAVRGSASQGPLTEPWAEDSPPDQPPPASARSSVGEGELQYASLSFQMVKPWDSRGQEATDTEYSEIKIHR
T2 sequence (Q9Y336 other isoform, or with tags, fused parts or gaps mutant): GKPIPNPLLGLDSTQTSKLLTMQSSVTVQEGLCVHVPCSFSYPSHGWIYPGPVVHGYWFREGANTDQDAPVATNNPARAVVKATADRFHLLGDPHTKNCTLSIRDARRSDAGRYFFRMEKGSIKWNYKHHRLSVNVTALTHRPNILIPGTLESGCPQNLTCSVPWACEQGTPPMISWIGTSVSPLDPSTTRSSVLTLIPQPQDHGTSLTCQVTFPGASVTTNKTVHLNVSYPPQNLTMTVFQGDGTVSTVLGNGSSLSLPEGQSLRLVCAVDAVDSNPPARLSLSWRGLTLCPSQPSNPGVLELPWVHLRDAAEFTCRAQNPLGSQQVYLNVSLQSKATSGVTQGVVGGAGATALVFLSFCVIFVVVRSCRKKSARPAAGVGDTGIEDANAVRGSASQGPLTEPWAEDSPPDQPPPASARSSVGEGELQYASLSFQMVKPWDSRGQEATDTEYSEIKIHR
T1 sequence (Q9Y336 other isoform, or with tags, fused parts or gaps mutant): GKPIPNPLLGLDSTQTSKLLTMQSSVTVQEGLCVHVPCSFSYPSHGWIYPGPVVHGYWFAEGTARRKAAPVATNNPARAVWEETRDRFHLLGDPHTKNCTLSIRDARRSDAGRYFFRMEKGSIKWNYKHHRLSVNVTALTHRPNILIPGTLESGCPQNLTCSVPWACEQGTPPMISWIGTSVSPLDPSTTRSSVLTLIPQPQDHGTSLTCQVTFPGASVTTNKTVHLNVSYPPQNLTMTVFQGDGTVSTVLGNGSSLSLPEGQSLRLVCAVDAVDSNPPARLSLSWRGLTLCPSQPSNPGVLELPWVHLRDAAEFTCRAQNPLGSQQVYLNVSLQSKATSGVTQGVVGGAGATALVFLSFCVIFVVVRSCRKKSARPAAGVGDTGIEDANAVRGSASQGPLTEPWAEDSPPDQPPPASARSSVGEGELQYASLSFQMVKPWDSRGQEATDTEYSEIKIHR
T6 sequence (Q9Y336 other isoform, or with tags, fused parts or gaps mutant): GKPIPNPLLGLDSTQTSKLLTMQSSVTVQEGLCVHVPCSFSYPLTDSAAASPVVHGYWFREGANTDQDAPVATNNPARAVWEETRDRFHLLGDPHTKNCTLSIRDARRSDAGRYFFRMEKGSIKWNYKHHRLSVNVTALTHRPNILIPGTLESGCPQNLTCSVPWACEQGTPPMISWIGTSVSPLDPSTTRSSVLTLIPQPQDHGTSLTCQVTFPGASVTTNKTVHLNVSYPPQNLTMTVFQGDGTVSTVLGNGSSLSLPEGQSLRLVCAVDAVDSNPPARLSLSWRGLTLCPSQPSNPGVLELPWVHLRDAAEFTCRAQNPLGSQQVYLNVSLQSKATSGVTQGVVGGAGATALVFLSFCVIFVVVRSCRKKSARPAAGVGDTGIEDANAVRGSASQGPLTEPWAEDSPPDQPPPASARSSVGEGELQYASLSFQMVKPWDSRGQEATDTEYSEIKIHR
T4 sequence (Q9Y336 other isoform, or with tags, fused parts or gaps mutant): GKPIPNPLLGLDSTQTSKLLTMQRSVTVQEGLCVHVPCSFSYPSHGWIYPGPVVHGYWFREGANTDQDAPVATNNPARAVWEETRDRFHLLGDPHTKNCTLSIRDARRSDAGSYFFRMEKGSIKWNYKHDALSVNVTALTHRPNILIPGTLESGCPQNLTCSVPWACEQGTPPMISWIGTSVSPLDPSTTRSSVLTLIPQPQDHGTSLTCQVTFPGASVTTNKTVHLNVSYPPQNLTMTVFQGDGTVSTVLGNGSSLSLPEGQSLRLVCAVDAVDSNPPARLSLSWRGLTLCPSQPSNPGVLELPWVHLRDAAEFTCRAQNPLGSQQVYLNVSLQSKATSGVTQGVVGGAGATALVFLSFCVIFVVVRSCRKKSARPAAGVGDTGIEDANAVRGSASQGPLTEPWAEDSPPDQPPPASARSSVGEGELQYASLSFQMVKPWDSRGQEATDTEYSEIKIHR
T8 sequence (Q9Y336 other isoform, or with tags, fused parts or gaps mutant): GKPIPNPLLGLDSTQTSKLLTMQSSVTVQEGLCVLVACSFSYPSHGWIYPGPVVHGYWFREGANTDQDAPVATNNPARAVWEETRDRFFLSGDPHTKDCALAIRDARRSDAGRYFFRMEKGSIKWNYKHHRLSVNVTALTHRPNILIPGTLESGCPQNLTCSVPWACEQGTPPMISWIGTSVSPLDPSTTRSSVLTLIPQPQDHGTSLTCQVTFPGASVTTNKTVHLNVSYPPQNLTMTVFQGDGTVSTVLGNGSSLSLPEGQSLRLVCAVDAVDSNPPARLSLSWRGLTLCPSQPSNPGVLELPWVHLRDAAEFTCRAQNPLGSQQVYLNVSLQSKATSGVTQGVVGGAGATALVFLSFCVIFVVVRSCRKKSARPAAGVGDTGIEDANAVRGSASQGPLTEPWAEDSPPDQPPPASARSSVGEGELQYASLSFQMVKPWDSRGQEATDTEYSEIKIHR
T5 sequence (chain, as listed by the source limits assumed): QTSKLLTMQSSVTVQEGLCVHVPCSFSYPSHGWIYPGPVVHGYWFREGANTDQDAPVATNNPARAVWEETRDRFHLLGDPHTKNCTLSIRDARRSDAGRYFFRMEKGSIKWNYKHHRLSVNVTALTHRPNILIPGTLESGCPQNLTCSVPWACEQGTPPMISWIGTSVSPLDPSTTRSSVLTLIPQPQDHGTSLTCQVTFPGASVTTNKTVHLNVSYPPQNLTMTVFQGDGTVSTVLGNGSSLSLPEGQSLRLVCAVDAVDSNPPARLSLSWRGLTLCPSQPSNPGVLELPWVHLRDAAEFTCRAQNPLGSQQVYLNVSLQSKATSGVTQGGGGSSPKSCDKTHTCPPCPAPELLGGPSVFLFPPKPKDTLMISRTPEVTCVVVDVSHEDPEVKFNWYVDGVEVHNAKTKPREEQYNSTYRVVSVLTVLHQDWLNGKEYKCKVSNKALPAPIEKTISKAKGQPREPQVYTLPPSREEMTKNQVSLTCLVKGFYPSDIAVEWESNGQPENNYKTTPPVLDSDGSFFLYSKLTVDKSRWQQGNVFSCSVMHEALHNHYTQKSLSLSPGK
T11 sequence (Q9Y336 other isoform, or with tags, fused parts or gaps mutant): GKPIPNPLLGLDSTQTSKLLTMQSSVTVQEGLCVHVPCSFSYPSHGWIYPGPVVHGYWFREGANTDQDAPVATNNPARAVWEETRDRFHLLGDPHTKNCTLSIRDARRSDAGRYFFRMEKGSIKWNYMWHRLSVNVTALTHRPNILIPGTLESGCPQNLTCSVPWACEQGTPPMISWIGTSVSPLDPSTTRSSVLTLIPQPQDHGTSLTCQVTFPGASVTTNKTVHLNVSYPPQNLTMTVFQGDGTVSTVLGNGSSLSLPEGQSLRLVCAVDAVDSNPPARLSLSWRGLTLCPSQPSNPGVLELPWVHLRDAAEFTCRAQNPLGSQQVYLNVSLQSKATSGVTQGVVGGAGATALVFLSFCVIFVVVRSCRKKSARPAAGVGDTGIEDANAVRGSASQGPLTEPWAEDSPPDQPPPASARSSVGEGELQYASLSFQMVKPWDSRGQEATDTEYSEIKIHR

B1: Fab.D (Fab of mAbD) (Fab, V domains shown)
VH: QIQLVQSGPELKKPGETVKISCKASGYTFTDYSMHWVKQAPGKGLKWMGWIITETGEPTYADDFRGRFAFSLETSANTAYLQINNLKNEDTATYFCARDFDGYWGQGTTLTVSS
VL: DILMTQSPASLSASVGETVTITCRASENIYSYLAWYQQKRGKSPQFLVYNAKTLTEGVPSRFRGSGSGTQFSLKINSLQPEDFGTYYCQHHYGFPWTFGGGTKLEIK
One may read the Kd as the free concentration of one partner at which half of the binding sites on the other are occupied at equilibrium, for simple one-to-one binding. A high value points to a looser complex. As a reminder, the koff is the rate constant with which the complex falls apart. Low values mean slow dissociation, high ones fast dissociation. As to B1, the binding result with Human Siglec-9 mutant M8 [1] is “binds”; in assay [2], “binds”; in assay [3], “binds”; in [4] it was “binds”; in the assay with Human Siglec-9 mutant M6 [5], “no binding”. The molecule further gave a Kd with Siglec-9 Fc protein of 4.12 nM. In addition, in the assay with Siglec-9 Fc protein, the koff was determined as 0.00011 s⁻¹.

B2: Fab.F (Fab of mAbF) (Fab, V domains shown)
VH: QVQLQQSGPEVVRPGVSVKISCKGSGYTFTDYSMHWVKQSHAKSLEWIGVISTYNGNTNYNQKFKGKATMTVDKSSSTAYMELARLTSEDSAIYYCARRGYYGSSSWFGYWGQGTLVTVSA
VL: DIVMTQSQKFMSTSVGDRVSVTCKASQNVGTDVAWYQQKPGQSPEALIYSASYRYSGVPDRFTGSGSGADFTLTISNVQSEDLAEYFCQQYNSFPYTFGGGTKLEIK
B2: the binding result in the assay with Human Siglec-9 mutant M2 is reported as “binds”; with Human Siglec-9 mutant M5 it was “binds”; with Human Siglec-9 mutant M6 [6], “binds”; with Human Siglec-9 mutant M7, “binds”; in assay [7] it was “no binding”. The molecule further showed a Kd with Siglec-9 Fc protein of 1 nM. This molecule registered a dissociation rate constant (koff) in the assay with Siglec-9 Fc protein of 0.00046 s⁻¹.

B3: Fab.E (Fab of mAbE) (Fab, V domains shown)
VH: DVQLVESGGGLVQPGGSRKLSCAASGFTFSTFGMHWVRQAPEKGLEWVAYISSGSNAIYYADTVKGRFTISRDNPKNTLFLQMTSLRSEDTAMYYCASPGYGAWFAYWGQGTLVTVSA
VL: ENVLTQSPAIMSASPGEKVTMTCRASSSVSSAYLHWYQQKSGASPKLWIYSTSNLASGVPARFSGSGSGTSYSLTISSVEAEDAATYYCQQYSAYPYTFGGGTKLEIK
Consider B3, for which the binding result with Human Siglec-9 mutant M2 is reported as “binds”; in the assay with Human Siglec-9 mutant M5, “binds”; in the assay with Human Siglec-9 mutant M6 [6], “binds”; in the assay with Human Siglec-9 mutant M7, “binds”; in [7], “no binding”. This molecule registered a Kd in the assay with Siglec-9 Fc protein of 1 nM. In the assay with Siglec-9 Fc protein, this molecule gave an off-rate (koff) of 0.0019 s⁻¹.

B4: Fab.C (Fab of mAbC) (Fab, V domains shown)
VH: QIQLVQSGPELKKPGETVKISCKASGYTFTNYEMNWVKEAPGKGLKWMGWINTYTGESTYADDFKGRFAFSLETSASTVYLQINNLKDEDVATYFCVRDDYGRSYGFAYWGQGTLVTVSA
VL: NIVLTQSPASLTVSLGQRANISCRASESVDSYGNSFMHWYQQKPGQPPKLLIYLASKLESGVPARFSGSGSRTDFTLTIDPVETDDAATYYCHQNNEDPPWTFGGGTKLEIK
Regarding B4, the binding result is “binds” with Human Siglec-9 mutant M7; “binds” in assay [2]; “binds” in [3]; “binds” in assay [4]; “no binding” with Human Siglec-9 mutant M8 [8]. Further, the affinity with Siglec-9 Fc protein, expressed as Kd, was 0.55 nM. The koff in the assay with Siglec-9 Fc protein was determined as 0.00043 s⁻¹.

B5: Fab1 (Fab of mAb1) (Fab, V domains shown)
VH: DVQLQESGPGLVKPSQSLSLTCTVTGYSITGGFAWNWIRQFPGNTLEWMGYIGYGGSTSYNPSLNSRISITRDTSKNHFFLQFNSVTTDDSATYYCARGDYLFAYWGQGTLVTVSA
VL: DIVMTQSHKFMSTSVGDRVSITCKASQDVNTAVAWYQQKPGQSPKLLIYSASYRYTGVPDRFTGSGSGTDFTFTISSVQAEDLAVYYCQQHYSTPRTFGGGTKLEIK
In the case of B5, the binding result in the assay with Human Siglec-9 mutant M2 is on record as “binds”; in the assay with Human Siglec-9 mutant M5, “binds”; in the assay with Human Siglec-9 mutant M6 [6], “binds”; in the assay with Human Siglec-9 mutant M7 it was “binds”; with Human Siglec-9 mutant M8 [1] it was “binds”; in [7] it was “no binding”. The equilibrium dissociation constant (Kd) in the assay with Siglec-7 Fc protein came to 0.06 nM; with Siglec-9 Fc protein, 0.4 nM. Moreover, the koff with Siglec-7 Fc protein was determined as 4e-05 s⁻¹; in the assay with Siglec-9 Fc protein, 0.00016 s⁻¹.

B6: Fab2 (Fab of mAb2) (Fab, V domains shown)
VH: EVQLQESGPGLVKPSQSLSLTCTVTGYSITGGFAWNWIRQFPGNTLEWMGYIGYGGSTSYNPSLNSRISITRDTSKNHFFLQFNSVTTEDSATYYCARGDYLFAYWGQGTLVTVSA
VL: DIVMTQSHKFMSTSVGDRVSITCKASQDVNTAVAWYQQKPGQSPKLLIYSASYRYTGVPDRFTGSGSGTDFTFTISSVQAEDLAVYYCQQHYSTPRTFGGGTKLEIK
notes: Fab fragment of the antibody
In the assay with Siglec-7 Fc protein, B6 displayed a dissociation constant Kd of 0.07 nM and a koff of 4e-05 s⁻¹. In the assay with Siglec-9 Fc protein, this molecule registered a Kd of 0.8 nM and a koff of 0.00017 s⁻¹.

B7: Fab.A (Fab of mAbA) (Fab, V domains shown)
VH: QVQLQQPGAELVKPGSPVKLSCKASYFTFTSYWMHWVRQRPGQGLEWIGEINPSNGHTNYNEKFESKATLTVDRSSSTAYMQLSSLTSEDSAVFYCANGVESYDFDDALDYWGQGTSVTVSS
VL: DIQMTQTTSSLSASLGDRVTISCRASQDINNYLNWYQQKPDGTIKLLIYYTSRLHSGVPSRFSGSGSGTDYSLTINNLEQEDIATYFCQQGNTLPFTFGGGTKLEIK
In the case of B7, the binding result with Human Siglec-9 mutant M7 was “binds”; with Human Siglec-9 mutant M8 [1] it was “binds”; in assay [4] it was “binds”; in [9], “no binding”. The Kd with Siglec-9 Fc protein is 0.04 nM. In the assay with Siglec-9 Fc protein, this molecule registered a koff of 2.5e-05 s⁻¹.

B8: Fab.B (Fab of mAbB) (Fab, V domains shown)
VH: QVQLQQPGAELVKPGASVKLSCKASVYTFTSYWMHWVKQRPGQGLEWIGEINPSNGHTNYNEKFKTKAKLTVDKSSSTAYMQLSSLTSEDSAVYFCANGVETYDFDDAMDYWGQGTSVTVSS
VL: DIQMTQTTSSLSASLGDRVTISCRASQDINNYLNWYQQKPDGTVKLLIYFTSRLHSGVPSRFSGSGSGTDYSLTISNLEQEDIATYFCQQGDTFPFTFGGGTKLEIK
Take B8: the binding result with Human Siglec-9 mutant M7 is “binds”; with Human Siglec-9 mutant M8 [1], “binds”; in [4], “binds”; in [9], “no binding”. In the assay with Siglec-9 Fc protein, binding was put at a Kd of 0.37 nM. The same molecule yielded a koff with Siglec-9 Fc protein of 0.00031 s⁻¹.

The record behind these values is US20200369765A1 (INNATE PHARMA, published 2020).
